The source of these data is patent US20190383824A1 (OREGON HEALTH AND SCIENCE UNIVERSITY, published 2019).

As a reminder, the Kd is the concentration at which binding is half-saturated. Low values mean higher affinity, high ones lower affinity.

B1: CoilY probe peptide (peptide)
peptide: MGSSNTVKELKNYIQELEERNAELKNLKEHLKFAKAELEFELAAHKFEGGGAAACLGKLAAALEHHHHHH
modifications: also: label (AF647, rhodamine or biotin) on Cys55 by maleimide, varies between preparations
notes: Recombinant from E. coli, with linker, reactive cysteine and His6 tag; All differently labelled CoilY probes are kept as one molecule; also called Coil5; Zip5

Experiment [1] has as its target T1, CoilY-EGFP-TM.
T1 construct: also called CoilY-GFP
T1 chain: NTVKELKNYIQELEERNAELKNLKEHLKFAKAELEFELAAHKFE
The experiment is described as follows: flow cytometry, live U-2 OS cells. On the procedure: (§1) Cells were treated with 500 nM AF647-conjugated probe peptide before analysis, and we gated for EGFP-expressing cells.
For orientation: Flow cytometry measures light scatter and fluorescence of single cells or particles in a stream.

Experiment [2] addresses T2, CoilZ-EGFP-TM.
T2 construct: CoilZ fused to the N-terminus of EGFP in pDisplay; also called CoilZ-GFP; CoilZ-EGFP-pDisplay
T2 chain: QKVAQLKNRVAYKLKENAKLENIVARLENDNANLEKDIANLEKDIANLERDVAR
In words: flow cytometry, live cells, 300 nM probe.

Experiment [3] deals with T2, CoilZ-EGFP-TM. In words: flow cytometry, live U-2 OS cells, 500 nM probe. On the procedure: as §1
Experiment [4] addresses T3, CoilY-mCherry-TM.
T3 construct: CoilY fused to the N-terminus of a membrane-targeted mCherry construct; on cells or in HEK293FT lysates; also called CoilY-mCherry-pDisplay
T3 chain: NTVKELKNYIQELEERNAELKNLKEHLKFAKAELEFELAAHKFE
The experiment is described as follows: two-target imaging of cells, confocal microscopy.

A further experiment deals with T4, CoilE-DHFR.
T4 construct: Lysate and purified protein resolved by SDS-PAGE and blotted on PVDF
T4 chain: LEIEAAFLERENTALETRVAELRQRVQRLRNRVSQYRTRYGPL
In words: fluorescent blot on PVDF after SDS-PAGE.

Experiment [5] deals with T1, CoilY-EGFP-TM. In words: flow cytometry, live U-2 OS cells, 500 nM probe. The method, then:
as §1

The experiment “CoilY probe peptide” concerns the target B1. In words: purified peptides; interferometry is named among the characterisation methods.
Experiment [6] has as its target T2, CoilZ-EGFP-TM. The experiment is described as follows: two-target imaging of cells, confocal microscopy, streptavidin-Qdot565 detection.
In experiment [7] the target is T3, CoilY-mCherry-TM. The experiment is described as follows: fluorescent blot on PVDF after SDS-PAGE.
The target in a further experiment is T5, mEmerald-CoilE-Actin-C18.
T5 construct: Expressed in U-2 OS cells; labelled after fixation and permeabilisation; also called CoilE-tagged actin; not shown: mEmerald, engineered green fluorescent protein; actin (Actin-C18 construct)
T5 chain: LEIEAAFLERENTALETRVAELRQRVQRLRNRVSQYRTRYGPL
In words: colocalisation analysis of micrographs, fixed U-2 OS cells. On the procedure:
(§2) U-2 OS cells were transfected with mEmerald-actin-C18, mEmerald-CoilE-actin-C18, H2B-6-mEmerald, H2B-6-CoilE-mEmerald, Mito-7-mEmerald, and Mito-7-CoilE-mEmerald and fixed with 4% PFA 24 hours after transfection. […] Cells were fixed and imaged using with line-scanning confocal microscope.
(§3) The cells labeled as in FIG. 15 at low magnification to capture multiple cells.

Another experiment deals with T6, H2B-6-CoilE-mEmerald.
T6 construct: Expressed in U-2 OS cells; labelled after fixation and permeabilisation; also called mEmerald-CoilE-H2B; not shown: histone H2B (H2B-6 construct); mEmerald, engineered green fluorescent protein
T6 chain: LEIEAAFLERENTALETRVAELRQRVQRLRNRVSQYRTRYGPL
The experiment is described as above. On the procedure: as §2, §3

The target in a further experiment is T7, Mito-7-CoilE-mEmerald.
T7 construct: Expressed in U-2 OS cells; labelled after fixation and permeabilisation; also called mEmerald-CoilE-mito; not shown: mEmerald, engineered green fluorescent protein
T7 chain: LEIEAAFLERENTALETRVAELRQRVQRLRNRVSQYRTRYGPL
The description is as above. The method, then:
as §2, §3

A further experiment concerns the target T8, untagged TfR1 (UniProt P02786 1-760, limits assumed).
T8 construct: whole, on cells; Expressed in CHO TRVb cells; control without a coil tag; also called transferrin receptor 1; TfR1-TRVb
The experiment is described as follows: CLEM of CHO TRVb cells, CoilR-biotin detected by streptavidin-QD655. The source says: VIP E/R was used for CLEM imaging of TfR1 receptor (FIG. 7). […] This enabled individual cells' locations to be registered relative to the slide so that they may be reimaged again via SEM. After fluorescent cells were mapped, the coverslips were processed for EM imaging.

T8 sequence (P02786 whole entry): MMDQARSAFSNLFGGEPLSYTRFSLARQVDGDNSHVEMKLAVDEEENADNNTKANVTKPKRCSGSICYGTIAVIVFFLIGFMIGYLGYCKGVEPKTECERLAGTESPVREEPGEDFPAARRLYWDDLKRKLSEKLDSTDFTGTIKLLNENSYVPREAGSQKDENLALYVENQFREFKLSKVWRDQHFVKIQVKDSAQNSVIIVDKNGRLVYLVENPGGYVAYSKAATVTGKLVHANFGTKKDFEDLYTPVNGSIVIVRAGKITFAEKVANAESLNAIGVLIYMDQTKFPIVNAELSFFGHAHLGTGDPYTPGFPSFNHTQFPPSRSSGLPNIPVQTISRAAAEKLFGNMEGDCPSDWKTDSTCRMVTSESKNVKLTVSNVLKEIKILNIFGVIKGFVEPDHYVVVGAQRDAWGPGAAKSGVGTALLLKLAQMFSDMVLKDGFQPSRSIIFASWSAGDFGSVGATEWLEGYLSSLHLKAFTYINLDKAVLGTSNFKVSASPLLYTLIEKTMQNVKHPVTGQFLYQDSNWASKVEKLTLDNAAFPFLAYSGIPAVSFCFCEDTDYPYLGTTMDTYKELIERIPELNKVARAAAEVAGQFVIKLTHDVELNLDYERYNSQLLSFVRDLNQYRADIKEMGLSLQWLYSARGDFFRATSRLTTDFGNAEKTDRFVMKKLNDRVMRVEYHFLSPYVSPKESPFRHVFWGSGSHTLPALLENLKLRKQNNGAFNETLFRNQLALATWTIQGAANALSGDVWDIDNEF

B1: the binding result with CoilY-EGFP-TM [1] and in the experiment with CoilY-mCherry-TM [4] was “no binding (tested: 500 nM)” in each case. Moreover, the “fold increase in AF647 fluorescence” value with CoilZ-EGFP-TM [2] was 35 fold. In addition, in the experiment with CoilZ-EGFP-TM [3], the “fold enhancement of AF647 fluorescence” value is more than 40 fold.

B2: CoilZ probe peptide (peptide)
peptide: MGSSQKVAQLKNRVAYKLKENAKLENIVARLENDNANLEKDIANLEKDIANLERDVARGGGAAACLGKLAAALEHHHHHH
modifications: reporter named in each row (AF647, fluorescein or biotin) conjugated to the reactive cysteine by maleimide chemistry; label state not stated for the biophysical characterisation
notes: Recombinant from E. coli, with linker, reactive cysteine and His6 tag; All differently labelled CoilZ probes are kept as one molecule; also called Coil6; Zip6
Turning to B2, the binding result in the experiment with CoilE-DHFR is “no binding”; in the experiment with CoilZ-EGFP-TM [6], “no binding (tested: 500 nM)”. The “fold enhancement of AF647 fluorescence” value with CoilY-EGFP-TM [5] stood at 4 fold. Also, the Kd with CoilY probe peptide is 3.6 nM.

B3: CoilR probe peptide (peptide)
peptide: MGGSLEIRAAFLRQRNTALRTEVAELEQEVQRLENEVSQYETRYGPLGGGAAALGCLAAALEHHHHHH
modifications: not fully specified
notes: also called CoilR-Cy5; CoilR-biotin
In the case of B3, the binding result was “no binding” with CoilY-mCherry-TM [7] and “no binding (tested: 100 nM)” with untagged TfR1. Further, the “Pearson's correlation between the mEmerald signal and CoilR-Cy5” value is 0.97 with mEmerald-CoilE-Actin-C18, 0.9 with H2B-6-CoilE-mEmerald and 0.89 in the experiment with Mito-7-CoilE-mEmerald.
